In the supplement of paper PMC5998384:

Key:
[1] = test system: HeLa Kyoto; assay: melting temperature (median over replicates), in situ; higher = more thermally stable
[2] = test system: HeLa Kyoto; assay: solubility in G1/S (NP-40 vs SDS abundance) (log2 ratio); higher = more soluble; details: cell cycle stage: G1/S
[3] = test system: HeLa Kyoto; assay: thermal stability score vs G1/S (z-score of summed log2 fold changes over temperatures); higher = more thermally stable than in G1/S
[4] = test system: HeLa Kyoto; assay: solubility change mitosis vs G1/S (difference of NP-40 vs SDS log2 ratios) (log2 ratio difference); higher = more soluble in mitosis
[5] = cell cycle stage: early G1 (4.5 h after nocodazole release)
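Wherever melting temperature (median over replicates), in situ is given: HeLa Kyoto cells synchronized by double thymidine or nocodazole block, proteins quantified by TMT10plex mass spectrometry, three independent biological replicates.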
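Wherever solubility change mitosis vs G1/S (difference of NP-40 vs SDS log2 ratios) is given: synchronized HeLa Kyoto cells (double thymidine block for G1/S, nocodazole release for mitosis), protein amounts in NP-40 versus SDS lysates quantified by mass spectrometry, three biological replicates.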
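Wherever solubility in G1/S (NP-40 vs SDS abundance) is given: HeLa Kyoto cells arrested at G1/S by double thymidine block, proteins quantified by TMT10plex mass spectrometry in mild NP-40 versus SDS extracts, three biological replicates.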
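Wherever thermal stability score vs G1/S (z-score of summed log2 fold changes over temperatures) is given: synchronized HeLa Kyoto cells, proteins quantified by TMT10plex mass spectrometry, three biological replicates, mitosis taken 0.5 h after nocodazole release, G1/S directly after double thymidine block.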

Row | Sequence | melting temperature ([1]; cell cycle stage: G1/S) [°C] | melting temperature ([1]; cell cycle stage: mitosis) [°C] | solubility in G1/S (log2) [2] | thermal stability score [3, 5] | thermal stability score ([3]; cell cycle stage: mitosis) | solubility change mitosis (log2) [4]
1 | MAAAGGAEGRRAALEAAAAAAPERGGGSCVLCCGDLEATALGRCDHPVCYRCSTKMRVLCEQRYCAVCREELRQVVFGKKLPAFATIPIHQLQHEKKYDIYFADGKVYALYRQLLQHECPRCPELPPFSLFGDLEQHMRRQHELFCCRLCLQHLQIFTYERKWYSRKDLARHRMQGDPDDTSHRGHPLCKFCDERYLDNDELLKHLRRDHYFCHFCDSDGAQDYYSDYAYLREHFREKHFLCEEGRCSTEQFTHAFRTEIDLKAHRTACHSRSRAEARQNRHIDLQFSYAPRHSRRNEGVVGGEDYEEVDRYSRQGRVARAGTRGAQQSRRGSWRYKREEEDREVAAAVRASVAAQQQEEARRSEDQEEGGRPKKEEAAARGPEDPRGPRRSPRTQGEGPGPKETSTNGPVSQEAFSVTGPAAPGCVGVPGALPPPSPKLKDEDFPSLSASTSSSCSTAATPGPVGLALPYAIPARGRSAFQEEDFPALVSSVPKPGTAPTSLVSAWNSSSSSKKVAQPPLSAQATGSGQPTRKAGKGSRGGRKGGPPFTQEEEEDGGPALQELLSTRPTGSVSSTLGLASIQPSKVGKKKKVGSEKPGTTLPQPPPATCPPGALQAPEAPASRAEGPVAVVVNGHTEGPAPARSAPKEPPGLPRPLGSFPCPTPQEDFPALGGPCPPRMPPPPGFSAVVLLKGTPPPPPPGLVPPISKPPPGFSGLLPSPHPACVPSPATTTTTKAPRLLPAPRAYLVPENFRERNLQLIQSIRDFLQSDEARFSEFKSHSGEFRQGLISAAQYYKSCRDLLGENFQKVFNELLVLLPDTAKQQELLSAHTDFCNREKPLSTKSKKNKKSAWQATTQQAGLDCRVCPTCQQVLAHGDASSHQALHAARDDDFPSLQAIARIIT [ZNF598] | 51.6 | 51.1 | -0.223 | -1.86 | -0.526 | 0.108
2 | MALLSEGLDEVPAACLSPCGPPNPTELFSESRRLALEELVAGGPEAFAAFLRRERLARFLNPDEVHAILRAAERPGEEGAAAAAAAEDSFGSSHDCSSGTYFPEQSDLEPPLLELGWPAFYQGAYRGATRVETHFQPRGAGEGGPYGCKDALRQQLRSAREVIAVVMDVFTDIDIFRDLQEICRKQGVAVYILLDQALLSQFLDMCMDLKVHPEQEKLMTVRTITGNIYYARSGTKIIGKVHEKFTLIDGIRVATGSYSFTWTDGKLNSSNLVILSGQVVEHFDLEFRILYAQSKPISPKLLSHFQSSNKFDHLTNRKPQSKELTLGNLLRMRLARLSSTPRKADLDPEMPAEGKAERKPHDCESSTVSEEDYFSSHRDELQSRKAIDAATQTEPGEEMPGLSVSEVGTQTSITTACAGTQTAVITRIASSQTTIWSRSTTTQTDMDENILFPRGTQSTEGSPVSKMSVSRSSSLKSSSSVSSQGSVASSTGSPASIRTTDFHNPGYPKYLGTPHLELYLSDSLRNLNKERQFHFAGIRSRLNHMLAMLSRRTLFTENHLGLHSGNFSRVNLLAVRDVALYPSYQ [FAM83D] | 49.8 | 49.4 | -0.213 | 0.13 | -0.391 | -0.133
3 | MAAVVVAAAGGAGPAVLQVAGLYRGLCAVRSRALGLGLVSPAQLRVFPVRPGSGRPEGGADSSGVGAEAELQANPFYDRYRDKIQLLRRSDPAAFESRLEKRSEFRKQPVGHSRQGDFIKCVEQKTDALGKQSVNRGFTKDKTLSSIFNIEMVKEKTAEEIKQIWQQYFAAKDTVYAVIPAEKFDLIWNRAQSCPTFLCALPRREGYEFFVGQWTGTELHFTALINIQTRGEAAASQLILYHYPELKEEKGIVLMTAEMDSTFLNVAEAQCIANQVQLFYATDRKETYGLVETFNLRPNEFKYMSVIAELEQSGLGAELKCAQNQNKT [ATPAF1] | 51.4 | 51.5 | 0.199 | 1.88 | 1.83 | -0.00439
4 | MSELPGDVRAFLREHPSLRLQTDARKVRCILTGHELPCRLPELQVYTRGKKYQRLVRASPAFDYAEFEPHIVPSTKNPHQLFCKLTLRHINKCPEHVLRHTQGRRYQRALCKYEECQKQGVEYVPACLVHRRRRREDQMDGDGPRPREAFWEPTSSDEGGAASDDSMTDLYPPELFTRKDLGSTEDGDGTDDFLTDKEDEKAKPPREKATDEGRRETTVYRGLVQKRGKKQLGSLKKKFKSHHRKPKSFSSCKQPG [SURF2] | 50.7 | 50.3 | 0.0911 | 0.779 | 0.703 | 0.0916
5 | MAQFGGQKNPPWATQFTATAVSQPAALGVQQPSLLGASPTIYTQQTALAAAGLTTQTPANYQLTQTAALQQQAAAAAAALQQQYSQPQQALYSVQQQLQQPQQTLLTQPAVALPTSLSLSTPQPTAQITVSYPTPRSSQQQTQPQKQRVFTGVVTKLHDTFGFVDEDVFFQLSAVKGKTPQVGDRVLVEATYNPNMPFKWNAQRIQTLPNQNQSQTQPLLKTPPAVLQPIAPQTTFGVQTQPQPQSLLQAQISAASITPLLQTQPQPLLQQPQQKAGLLQPPVRIVSQPQPARRLDPPSRFSGRNDRGDQVPNRKDDRSRERERERRRSRERSPQRKRSRERSPRRERERSPRRVRRVVPRYTVQFSKFSLDCPSCDMMELRRRYQNLYIPSDFFDAQFTWVDAFPLSRPFQLGNYCNFYVMHREVESLEKNMAILDPPDADHLYSAKVMLMASPSMEDLYHKSCALAEDPQELRDGFQHPARLVKFLVGMKGKDEAMAIGGHWSPSLDGPDPEKDPSVLIKTAIRCCKALTGIDLSVCTQWYRFAEIRYHRPEETHKGRTVPAHVETVVLFFPDVWHCLPTRSEWETLSRGYKQQLVEKLQGERKEADGEQDEEEKDDGEAKEISTPTHWSKLDPKTMKVNDLRKELESRALSSKGLKSQLIARLTKQLKVEEQKEEQKELEKSEKEEDEDDDRKSEDDKEEEERKRQEEIERQRRERRYILPDEPAIIVHPNWAAKSGKFDCSIMSLSVLLDYRLEDNKEHSFEVSLFAELFNEMLQRDFGVRIYKSLLSLPEKEDKKEKDKKSKKDERKDKKEERDDETDEPKPKRRKSGDDKDKKEDRDERKKEDKRKDDSKDDDETEEDNNQDEYDPMEAEEAEDEEDDRDEEEMTKRDDKRDINRYCKERPSKDKEKEKTQMITINRDLLMAFVYFDQSHCGYLLEKDLEEILYTLGLHLSRAQVKKLLNKVVLRESCFYRKLTDTSKDEENHEESESLQEDMLGNRLLLPTPTVKQESKDVEENVGLIVYNGAMVDVGSLLQKLEKSEKVRAEVEQKLQLLEEKTDEDEKTILNLENSNKSLSGELREVKKDLSQLQENLKISENMNLQFENQMNKTIRNLSTVMDEIHTVLKKDNVKNEDKDQKSKENGASV [CCAR1] | 50.9 | 50.8 | -0.232 | 0.304 | 1.74 | 0.0916
6 | MSTARTENPVIMGLSSQNGQLRGPVKPTGGPGGGGTQTQQQMNQLKNTNTINNGTQQQAQSMTTTIKPGDDWKKTLKLPPKDLRIKTSDVTSTKGNEFEDYCLKRELLMGIFEMGWEKPSPIQEESIPIALSGRDILARAKNGTGKSGAYLIPLLERLDLKKDNIQAMVIVPTRELALQVSQICIQVSKHMGGAKVMATTGGTNLRDDIMRLDDTVHVVIATPGRILDLIKKGVAKVDHVQMIVLDEADKLLSQDFVQIMEDIILTLPKNRQILLYSATFPLSVQKFMNSHLQKPYEINLMEELTLKGVTQYYAYVTERQKVHCLNTLFSRLQINQSIIFCNSSQRVELLAKKISQLGYSCFYIHAKMRQEHRNRVFHDFRNGLCRNLVCTDLFTRGIDIQAVNVVINFDFPKLAETYLHRIGRSGRFGHLGLAINLITYDDRFNLKSIEEQLGTEIKPIPSNIDKSLYVAEYHSEPVEDEKP [DDX6] | 51.5 | 51 | -0.136 | 0.486 | -0.288 | 0.0947
7 | MDIYDTQTLGVVVFGGFMVVSAIGIFLVSTFSMKETSYEEALANQRKEMAKTHHQKVEKKKKEKTVEKKGKTKKKEEKPNGKIPDHDPAPNVTVLLREPVRAPAVAVAPTPVQPPIIVAPVATVPAMPQEKLASSPKDKKKKEKKVAKVEPAVSSVVNSIQVLTSKAAILETAPKEVPMVVVPPVGAKGNTPATGTTQGKKAEGTQNQSKKAEGAPNQGRKAEGTPNQGKKTEGTPNQGKKAEGTPNQGKKAEGTPNQGKKAEGAQNQGKKVDTTPNQGKKVEGAPTQGRKAEGAQNQAKKVEGAQNQGKKAEGAQNQGKKGEGAQNQGKKAEGAQNQGKKAEGAQNQGKKAEGAQNQGKKAEGAQNQGKKAEGAQNQGKKAEGAQNQGKKVEGAQNQGKKAEGAQNQGKKAEGAQNQGKKAEGAQNQGKKAEGAQNQGKKAEGAQNQGKKAEGAQNQGKKAEGAQNQGKKVEGAQNQGKKAEGAQNQGKKAEGAQNQGKKAEGAQNQGQKGEGAQNQGKKTEGAQGKKAERSPNQGKKGEGAPIQGKKADSVANQGTKVEGITNQGKKAEGSPSEGKKAEGSPNQGKKADAAANQGKKTESASVQGRNTDVAQSPEAPKQEAPAKKKSGSKKKGEPGPPDADGPLYLPYKTLVSTVGSMVFNEGEAQRLIEILSEKAGIIQDTWHKATQKGDPVAILKRQLEEKEKLLATEQEDAAVAKSKLRELNKEMAAEKAKAAAGEAKVKKQLVAREQEITAVQARMQASYREHVKEVQQLQGKIRTLQEQLENGPNTQLARLQQENSILRDALNQATSQVESKQNAELAKLRQELSKVSKELVEKSEAVRQDEQQRKALEAKAAAFEKQVLQLQASHRESEEALQKRLDEVSRELCHTQSSHASLRADAEKAQEQQQQMAELHSKLQSSEAEVRSKCEELSGLHGQLQEARAENSQLTERIRSIEALLEAGQARDAQDVQASQAEADQQQTRLKELESQVSGLEKEAIELREAVEQQKVKNNDLREKNWKAMEALATAEQACKEKLLSLTQAKEESEKQLCLIEAQTMEALLALLPELSVLAQQNYTEWLQDLKEKGPTLLKHPPAPAEPSSDLASKLREAEETQSTLQAECDQYRSILAETEGMLRDLQKSVEEEEQVWRAKVGAAEEELQKSRVTVKHLEEIVEKLKGELESSDQVREHTSHLEAELEKHMAAASAECQNYAKEVAGLRQLLLESQSQLDAAKSEAQKQSDELALVRQQLSEMKSHVEDGDIAGAPASSPEAPPAEQDPVQLKTQLEWTEAILEDEQTQRQKLTAEFEEAQTSACRLQEELEKLRTAGPLESSETEEASQLKERLEKEKKLTSDLGRAATRLQELLKTTQEQLAREKDTVKKLQEQLEKAEDGSSSKEGTSV [RRBP1] | 53.2 | 53.7 | 0.0657 | 2.64 | 7.14 | 0.448
8 | MSVLLRSGLGPLCAVARAAIPFIWRGKYFSSGNEPAENPVTPMLRHLMYKIKSTGPITVAEYMKEVLTNPAKGYYVYRDMLGEKGDFITSPEISQIFGELLGIWFISEWMATGKSTAFQLVELGPGRGTLVGDILRVFTQLGSVLKNCDISVHLVEVSQKLSEIQALTLTKEKVPLERNAGSPVYMKGVTKSGIPISWYRDLHDVPKGYSFYLAHEFFDVLPVHKFQKTPQGWREVFVDIDPQVSDKLRFVLAPSATPAEAFIQHDETRDHVEVCPDAGVIIEELSQRIALTGGAALVADYGHDGTKTDTFRGFCDHKLHDVLIAPGTADLTADVDFSYLRRMAQGKVASLGPIKQHTFLKNMGIDVRLKVLLDKSNEPSVRQQLLQGYDMLMNPKKMGERFNFFALLPHQRLQGGRYQRNARQSKPFASVVAGFSELAWQ [NDUFAF7] | 49.2 | 49 | 0.278 | 0.103 | 1.08 | -0.162
